# Results taken from patent US20230131847A1, “RECOMBINASE COMPOSITIONS AND METHODS OF USE” (FLAGSHIP PIONEERING INNOVATIONS VI, LLC, priority 2019, published 2023).
# B1: BXB1 integrase: Bxb1 recombinase protein (Table 3A Line No. 204), delivered as AAV vector or mRNA (protein, UniProt P25426 1-333, looked up)
# Integrase: MDAEAWLASEKRLIDNEEWTPPAEREKKAAASAITVEEYTKKWIAERDLAGGTKDLYSTHARKRIYPVLGDTPVAEMTPALVRAWWAGMGKQYPTARRHAYNVLRAVMNTAVEDKLVSENPCRIEQKAPAERDVEALTPEELDVVAGEVFEHYRVAVYILAWTSLRFGELIEIRRKDIMDDGETMKLRVRRGPARVGEKIVVGNTKTVRSKRPVTVPPHVAAMIRAHMADRTKMNKGPEALLVTTTRGQRLSKSAFTRSLKKGYAKIGRPDLRIHDLRAVGATLAAQAGATTKELMVRLGHTTPRMAMKYQMASAARDEEIARRMSELAGITP
# Legend:
# [1] = test system: HEK293T landing pad cells; test: Dual AAV delivery of serine integrase and template DNA, ddPCR integration assay; type: cell-based, human
# From the text: FIGS. 3A and 3B: Dual AAV delivery of serine integrase and template DNA to mammalian cells. (A) Schematic representation of experiment. BXB1 serine recombinase and template DNA are co-delivered as separate AAV viral vectors into BXB landing pad cell lines. (B) Droplet digital PCR (ddPCR) assay to assess integration (% CNV/landing pad) of BXB1 serine recombinase and transgene into attP-attP* landing pad cell line 3 days and 7 days post-transduction. Black dots (to the right of each pair of gray dots) indicate template only samples and fall at 0% on the y-axis. Gray dots (to the left of each pair of black dots) indicate template+BXB1 integrase and fall between 1-6% on the y-axis. […]
# Two transgene configurations are assessed to determine the integration, stability, and expression using different AAV donor formats (FIG. 1B): 1) template comprising attP* or attB* that utilizes formation of double-stranded circularized DNA following AAV transduction in the cell nucleus; or 2) template comprising double attachment sites, attP-attP* or attB-attB*, that can integrate into the mammalian genome independent of double-stranded circularization of the DNA following AAV transduction in the cell nucleus. […]
# [2] = test system: HEK293T landing pad cells; test: mRNA delivery of integrase and AAV delivery of template DNA, ddPCR integration assay; type: cell-based, human
# From the text: FIGS. 4A and 4B: mRNA delivery of BXB1 integrase and AAV delivery of template DNA to mammalian cells. (A) Schematic representation of experiment. mRNA delivery of BXB1 serine recombinase and AAV delivery of template DNA into BXB1 landing pad cell lines. (B) Droplet digital PCR (ddPCR) assay to assess integration (% CNV/landing pad) of BXB1 serine recombinase and transgene into attP-attP* landing pad cell line 3 days post mRNA transfection/AAV transduction. Black dots (to the right of each pair of gray dots) indicate template only samples and fall at 0% on the y-axis. Gray dots (to the left of each pair of black dots) indicate template+BXB1 integrase and fall at greater than 0% on the y-axis.
# More specifically, a recombinase, e.g., an integrase with an amino acid sequence from Table 3A, 3B, or 3C, e.g., the Bxb1 recombinase protein (Table 3A Line No. 204), and a template DNA comprising the associated attachment site, e.g., a sequence from a LeftRegion or RightRegion of Table 2A, 2B, or 2C, e.g., the LeftRegion from Table 2A Line No. 204, are introduced into a HEK293T landing pad cell line. In this example, the recombinase is delivered as mRNA encoding the recombinase, and the template DNA is delivered via AAV.
# HEK293T landing pad cells containing either the attP-attP* or attB-attB* landing pad sites (see Example 14) were seeded in a 48-well plate format at 40,000 cells/well. […] The timing of delivery was also assessed by the following conditions: 1) mRNA delivery of BXB1 integrase and AAV delivery of template DNA on the same day, 2) mRNA delivery of BXB1 integrase 24 h prior to AAV delivery of template DNA, 3) AAV delivery of template DNA 24 h prior to mRNA delivery of BXB1 integrase. ddPCR was performed to assess the integration mediated through mRNA delivery of a serine integrase and AAV delivery of a template comprising its attachment, ddPCR was performed to assay for integration (% CNV/landing pad) on day 3 post-transfection of mRNA and post-transduction of AAV. ˜2-4% integration was detected using an attP* donor to attB-attB* landing pad 293T cell line (FIG. 4B). […]
molecule,measurement,setting,value
B1,integration (% CNV/landing pad) by ddPCR,"[1]; dual AAV2, attB* donor to attP-attP* landing pad cell line, day 3 and day 7 post-transduction, integrase MOI about 25,000, template MOI about 75,000",~5%
same,"integration (% CNV/landing pad) by ddPCR, FIG. 3B","[1]; dual AAV, template+BXB1 integrase, attP-attP* landing pad cell line, 3 days and 7 days post-transduction",1-6%
same,highest % CNV/landing pad by ddPCR,"[2]; AAV delivery of attachment site donor 24 h prior to mRNA delivery of BXB1 integrase, day 3",~4%
same,integration (% CNV/landing pad) by ddPCR,"[2]; integrase mRNA about 1 μg + AAV template MOI about 75,000, attP* donor to attB-attB* landing pad 293T cell line, day 3",2-4%
same,"integration (% CNV/landing pad) by ddPCR, FIG. 4B","[2]; template+BXB1 integrase, attP-attP* landing pad cell line, 3 days post mRNA transfection/AAV transduction",greater than 0%
